Bridge positions count the residues as written; N and C are the ends. Ends that are not written are not given here.
Assays:
Assay in all cases: phage-binding assay
[1] = molecular target: T1, CASQ1, human recombinant protein (human, UniProt P31415 35-396)
T1 sequence (looked up): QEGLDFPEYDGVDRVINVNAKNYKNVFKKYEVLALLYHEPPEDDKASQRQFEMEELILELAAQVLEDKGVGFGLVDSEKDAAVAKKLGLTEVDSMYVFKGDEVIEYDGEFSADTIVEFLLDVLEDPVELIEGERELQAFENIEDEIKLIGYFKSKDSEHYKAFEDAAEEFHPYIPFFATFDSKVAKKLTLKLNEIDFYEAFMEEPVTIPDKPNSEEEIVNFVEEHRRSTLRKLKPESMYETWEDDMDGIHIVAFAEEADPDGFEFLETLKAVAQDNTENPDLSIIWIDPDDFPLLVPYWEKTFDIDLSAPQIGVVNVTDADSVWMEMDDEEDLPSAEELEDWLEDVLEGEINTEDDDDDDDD

[2] = molecular target: T2, CRYAB, human recombinant protein (human, UniProt P02511 1-175)
T2 sequence (looked up): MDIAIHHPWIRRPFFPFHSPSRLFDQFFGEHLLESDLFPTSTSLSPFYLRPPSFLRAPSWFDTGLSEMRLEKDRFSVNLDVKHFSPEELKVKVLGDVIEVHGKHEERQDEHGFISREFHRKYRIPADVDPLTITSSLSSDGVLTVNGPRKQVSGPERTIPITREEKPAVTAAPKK

[3] = molecular target: T3, complement component 1 Q subcomponent-binding protein (mitochondrial) (human, UniProt Q07021 74-282)
T3 sequence (looked up): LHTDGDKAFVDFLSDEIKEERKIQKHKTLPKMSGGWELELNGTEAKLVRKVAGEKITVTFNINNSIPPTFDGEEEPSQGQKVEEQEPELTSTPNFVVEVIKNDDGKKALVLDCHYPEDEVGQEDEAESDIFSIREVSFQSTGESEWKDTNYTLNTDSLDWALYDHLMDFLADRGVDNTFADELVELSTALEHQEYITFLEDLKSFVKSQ

desmin = desmin (human, UniProt P17661 1-470)
[4] = molecular target: 78 kDa glucose-regulated protein (human, UniProt P11021 19-654)
calumenin = molecular target: T4, calumenin (human, UniProt O43852 20-315)
T4 sequence (looked up): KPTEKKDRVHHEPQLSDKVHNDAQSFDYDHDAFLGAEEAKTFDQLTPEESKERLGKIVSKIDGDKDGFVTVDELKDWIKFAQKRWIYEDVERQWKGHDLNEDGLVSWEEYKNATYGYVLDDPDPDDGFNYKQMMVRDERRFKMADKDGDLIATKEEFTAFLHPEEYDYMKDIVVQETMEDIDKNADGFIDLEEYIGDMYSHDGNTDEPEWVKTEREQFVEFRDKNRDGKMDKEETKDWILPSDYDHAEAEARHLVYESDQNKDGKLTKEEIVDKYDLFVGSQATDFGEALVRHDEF

[5] = molecular target: peptidyl-prolyl cis-trans isomerase B (human, UniProt P23284 34-216)
[6] = molecular target: HSP27, human recombinant protein (human, UniProt P04792 1-205)
[7] = molecular target: T5, thioredoxin-dependent peroxide reductase (mitochondrial) (human, UniProt P30048 62-256)
T5 sequence (looked up): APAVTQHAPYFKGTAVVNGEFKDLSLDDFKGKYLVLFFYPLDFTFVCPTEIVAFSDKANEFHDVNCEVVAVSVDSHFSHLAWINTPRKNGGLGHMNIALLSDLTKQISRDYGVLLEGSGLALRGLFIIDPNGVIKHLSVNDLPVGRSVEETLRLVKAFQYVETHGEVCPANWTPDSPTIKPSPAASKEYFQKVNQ

lactotransferrin = lactotransferrin (human, UniProt P02788 20-710)
[8] = molecular target: T6, fructose-bisphosphate aldolase A (human, UniProt P04075 1-364)
T6 sequence (looked up): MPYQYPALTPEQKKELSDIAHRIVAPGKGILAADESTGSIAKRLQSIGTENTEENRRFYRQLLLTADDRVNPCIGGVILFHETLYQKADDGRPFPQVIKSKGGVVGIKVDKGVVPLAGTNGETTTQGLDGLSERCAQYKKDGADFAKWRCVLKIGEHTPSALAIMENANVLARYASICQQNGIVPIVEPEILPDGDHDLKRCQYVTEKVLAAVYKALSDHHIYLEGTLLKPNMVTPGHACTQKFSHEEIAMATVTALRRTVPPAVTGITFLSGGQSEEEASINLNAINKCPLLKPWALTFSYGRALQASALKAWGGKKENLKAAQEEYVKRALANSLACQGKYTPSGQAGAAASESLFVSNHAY

[9] = molecular target: heat shock cognate 71 kDa protein (human, UniProt P11142 1-646)
annexin A1 = molecular target: T7, annexin A1 (human, UniProt P04083 1-346)
T7 sequence (looked up): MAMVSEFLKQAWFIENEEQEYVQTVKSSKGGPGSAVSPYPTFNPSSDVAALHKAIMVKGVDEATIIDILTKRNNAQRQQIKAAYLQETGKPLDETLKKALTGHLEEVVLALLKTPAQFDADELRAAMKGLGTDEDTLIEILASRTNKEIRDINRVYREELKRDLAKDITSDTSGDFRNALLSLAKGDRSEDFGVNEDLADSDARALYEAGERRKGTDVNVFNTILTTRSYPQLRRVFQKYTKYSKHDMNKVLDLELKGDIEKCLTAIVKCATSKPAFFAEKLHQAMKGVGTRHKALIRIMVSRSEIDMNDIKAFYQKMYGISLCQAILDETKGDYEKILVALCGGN

[10] = molecular target: BAG family molecular chaperone regulator 3 (human, UniProt O95817 1-575)
Chain of BAG family molecular chaperone regulator 3 (O95817 whole entry): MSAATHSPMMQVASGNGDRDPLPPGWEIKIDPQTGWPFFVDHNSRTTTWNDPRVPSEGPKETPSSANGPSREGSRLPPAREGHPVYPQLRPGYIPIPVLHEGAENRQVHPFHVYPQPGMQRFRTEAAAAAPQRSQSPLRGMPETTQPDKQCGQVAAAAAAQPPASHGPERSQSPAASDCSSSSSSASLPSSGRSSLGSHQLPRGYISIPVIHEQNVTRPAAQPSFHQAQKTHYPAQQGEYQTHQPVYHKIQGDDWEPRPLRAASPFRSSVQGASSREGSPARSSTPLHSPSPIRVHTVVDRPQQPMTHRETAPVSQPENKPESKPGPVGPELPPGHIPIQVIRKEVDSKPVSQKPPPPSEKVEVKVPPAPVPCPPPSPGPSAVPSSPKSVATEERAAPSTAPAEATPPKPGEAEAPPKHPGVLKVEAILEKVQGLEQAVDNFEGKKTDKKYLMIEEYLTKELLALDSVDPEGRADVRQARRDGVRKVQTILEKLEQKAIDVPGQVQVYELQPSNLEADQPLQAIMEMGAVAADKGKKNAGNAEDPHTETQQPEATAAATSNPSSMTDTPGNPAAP

Chain of heat shock cognate 71 kDa protein (P11142 whole entry): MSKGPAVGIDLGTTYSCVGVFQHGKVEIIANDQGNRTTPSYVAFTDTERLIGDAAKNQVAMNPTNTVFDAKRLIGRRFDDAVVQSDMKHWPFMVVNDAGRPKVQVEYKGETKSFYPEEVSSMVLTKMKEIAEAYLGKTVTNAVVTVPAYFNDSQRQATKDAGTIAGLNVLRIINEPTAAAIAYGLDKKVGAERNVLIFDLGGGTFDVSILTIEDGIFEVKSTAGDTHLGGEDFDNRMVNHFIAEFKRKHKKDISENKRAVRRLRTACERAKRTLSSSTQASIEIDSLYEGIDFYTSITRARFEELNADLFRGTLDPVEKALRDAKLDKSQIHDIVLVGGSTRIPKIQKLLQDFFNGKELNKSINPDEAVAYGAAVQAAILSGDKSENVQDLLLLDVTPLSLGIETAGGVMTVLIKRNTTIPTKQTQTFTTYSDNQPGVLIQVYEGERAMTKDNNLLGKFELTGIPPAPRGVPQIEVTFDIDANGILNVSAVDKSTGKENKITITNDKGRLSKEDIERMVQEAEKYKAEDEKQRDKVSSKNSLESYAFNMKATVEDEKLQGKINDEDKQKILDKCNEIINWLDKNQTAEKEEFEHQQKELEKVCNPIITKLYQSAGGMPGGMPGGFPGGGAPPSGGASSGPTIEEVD
Chain of peptidyl-prolyl cis-trans isomerase B (P23284 34-216): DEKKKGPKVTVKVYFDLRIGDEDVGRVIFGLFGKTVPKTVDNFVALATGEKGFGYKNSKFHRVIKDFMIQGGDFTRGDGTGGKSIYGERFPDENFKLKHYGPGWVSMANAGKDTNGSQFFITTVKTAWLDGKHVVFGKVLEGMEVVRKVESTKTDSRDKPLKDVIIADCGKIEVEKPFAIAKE
Chain of lactotransferrin (P02788 20-710): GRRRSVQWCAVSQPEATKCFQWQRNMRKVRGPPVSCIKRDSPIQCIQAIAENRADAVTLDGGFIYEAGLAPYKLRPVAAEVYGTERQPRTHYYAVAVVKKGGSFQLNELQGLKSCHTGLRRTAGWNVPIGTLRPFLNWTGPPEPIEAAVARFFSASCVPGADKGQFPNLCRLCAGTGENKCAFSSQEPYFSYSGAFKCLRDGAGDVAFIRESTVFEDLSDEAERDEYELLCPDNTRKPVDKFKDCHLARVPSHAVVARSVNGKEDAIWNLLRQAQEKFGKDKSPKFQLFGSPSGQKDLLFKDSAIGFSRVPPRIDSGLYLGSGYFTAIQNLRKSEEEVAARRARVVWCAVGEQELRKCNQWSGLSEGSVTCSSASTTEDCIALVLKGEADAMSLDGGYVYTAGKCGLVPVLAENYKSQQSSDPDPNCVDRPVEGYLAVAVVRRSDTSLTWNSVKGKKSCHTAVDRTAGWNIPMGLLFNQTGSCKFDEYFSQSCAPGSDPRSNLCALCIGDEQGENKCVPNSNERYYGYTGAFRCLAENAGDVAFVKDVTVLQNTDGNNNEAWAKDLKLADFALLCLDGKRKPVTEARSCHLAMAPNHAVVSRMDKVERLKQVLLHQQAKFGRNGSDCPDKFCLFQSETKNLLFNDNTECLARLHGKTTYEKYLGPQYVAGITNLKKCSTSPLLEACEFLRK
Chain of HSP27, human recombinant protein (P04792 whole entry): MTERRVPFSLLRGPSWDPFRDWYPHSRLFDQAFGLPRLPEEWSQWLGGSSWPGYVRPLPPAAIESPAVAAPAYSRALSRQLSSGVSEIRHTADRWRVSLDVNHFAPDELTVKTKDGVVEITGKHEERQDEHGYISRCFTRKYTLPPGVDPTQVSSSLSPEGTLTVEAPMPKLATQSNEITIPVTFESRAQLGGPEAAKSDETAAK
Chain of desmin (P17661 whole entry): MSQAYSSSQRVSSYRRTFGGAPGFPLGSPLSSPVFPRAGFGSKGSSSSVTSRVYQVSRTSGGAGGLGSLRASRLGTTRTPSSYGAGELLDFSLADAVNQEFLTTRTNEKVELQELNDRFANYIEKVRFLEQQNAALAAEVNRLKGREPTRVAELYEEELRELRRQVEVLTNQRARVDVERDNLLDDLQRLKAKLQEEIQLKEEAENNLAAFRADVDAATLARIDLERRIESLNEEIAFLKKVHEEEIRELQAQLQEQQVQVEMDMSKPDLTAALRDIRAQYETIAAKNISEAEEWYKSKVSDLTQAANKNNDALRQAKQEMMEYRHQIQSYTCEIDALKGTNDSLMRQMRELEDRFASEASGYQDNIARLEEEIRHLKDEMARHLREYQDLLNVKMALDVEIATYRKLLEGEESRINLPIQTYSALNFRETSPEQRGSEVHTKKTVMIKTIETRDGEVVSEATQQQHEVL
Chain of 78 kDa glucose-regulated protein (P11021 19-654): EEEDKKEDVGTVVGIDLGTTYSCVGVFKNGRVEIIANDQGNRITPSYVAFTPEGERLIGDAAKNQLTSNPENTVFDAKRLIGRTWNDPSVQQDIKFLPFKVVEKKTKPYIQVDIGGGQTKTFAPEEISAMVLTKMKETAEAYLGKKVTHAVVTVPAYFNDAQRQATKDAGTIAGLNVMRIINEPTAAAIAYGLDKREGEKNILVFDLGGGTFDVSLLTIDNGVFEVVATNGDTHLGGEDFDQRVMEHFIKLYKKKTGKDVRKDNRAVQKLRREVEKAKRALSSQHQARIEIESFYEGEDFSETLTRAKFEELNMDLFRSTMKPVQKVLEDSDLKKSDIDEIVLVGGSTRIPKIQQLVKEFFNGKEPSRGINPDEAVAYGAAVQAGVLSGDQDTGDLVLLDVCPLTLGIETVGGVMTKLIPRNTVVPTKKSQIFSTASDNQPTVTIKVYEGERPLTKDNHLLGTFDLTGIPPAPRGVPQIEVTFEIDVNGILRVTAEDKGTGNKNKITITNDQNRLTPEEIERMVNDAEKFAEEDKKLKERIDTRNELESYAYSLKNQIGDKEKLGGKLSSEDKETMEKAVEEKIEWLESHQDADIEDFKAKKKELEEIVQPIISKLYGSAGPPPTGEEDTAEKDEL

B1: CLRGFPALVC-displaying phage (peptide)
peptide: CLRGFPALVC
modifications: disulfide 1-10
B1: binds [1].

B2: CRGFVRGSC-displaying phage (peptide)
peptide: CRGFVRGSC
modifications: disulfide 1-9
B2: binds [2].

B3: CSRGSPDARC-displaying phage (peptide)
peptide: CSRGSPDARC
modifications: disulfide 1-10
B3: binds [3].

B4: CSRAKGRGAC-displaying phage (peptide)
peptide: CSRAKGRGAC
modifications: disulfide 1-10
B4: binds (desmin).

B5: CVLRFFSSC-displaying phage (peptide)
peptide: CVLRFFSSC
modifications: disulfide 1-9
B5: binds [4].

B6: CRPARVRGAC-displaying phage (peptide)
peptide: CRPARVRGAC
modifications: disulfide 1-10
B6: binds [2].

B7: CPTFFAVPC-displaying phage (peptide)
peptide: CPTFFAVPC
modifications: disulfide 1-9
B7: binds (calumenin).

B8: CASAVPISC-displaying phage (peptide)
peptide: CASAVPISC
modifications: disulfide 1-9
B8: binds [5].

B9: CLVSGRSRC-displaying phage (peptide)
peptide: CLVSGRSRC
modifications: disulfide 1-9
B9: binds [6].

B10: CTESFQKHLC-displaying phage (peptide)
peptide: CTESFQKHLC
modifications: disulfide 1-10
B10: binds [7].

B11: CGILGPWMAC-displaying phage (peptide)
peptide: CGILGPWMAC
modifications: disulfide 1-10
B11: binds (lactotransferrin).

B12: CKWEGLDMAC-displaying phage (peptide)
peptide: CKWEGLDMAC
modifications: disulfide 1-10; also: displayed on phage
B12: binds [8].

B13: CLNVSGRSC-displaying phage (peptide)
peptide: CLNVSGRSC
modifications: disulfide 1-9
B13: binds [9].

B14: CHKPPNFGSC-displaying phage (peptide)
peptide: CHKPPNFGSC
modifications: disulfide 1-10
B14: binds (annexin A1).

B15: CEGKEDMQGC-displaying phage (peptide)
peptide: CEGKEDMQGC
modifications: disulfide 1-10
B15: binds [10].

B16: CLRGFQRVC-displaying phage (peptide)
peptide: CLRGFQRVC
modifications: disulfide 1-9
B16: binds [1].

— paper PMC12955825 (Med (New York, N.Y.), 2025)
